Experimental findings from PMC9957047, “A Role for the Interactions between Polδ and PCNA Revealed by Analysis of pol3-01 Yeast Mutants” (Genes, 2023) are described below.

In this experiment the target is T1, PCNA (Pol30) immunoprecipitated in the co-IP of Figure 2C (S. cerevisiae, UniProt P15873 1-258).
T1 construct: Pol30 (PCNA), S. cerevisiae; homotrimeric clamp of three copies of Pol30; No tag is named for PCNA in this experiment; the methods precipitate with an anti-PCNA antibody; source: S. cerevisiae, in lysate
T1 sequence (looked up): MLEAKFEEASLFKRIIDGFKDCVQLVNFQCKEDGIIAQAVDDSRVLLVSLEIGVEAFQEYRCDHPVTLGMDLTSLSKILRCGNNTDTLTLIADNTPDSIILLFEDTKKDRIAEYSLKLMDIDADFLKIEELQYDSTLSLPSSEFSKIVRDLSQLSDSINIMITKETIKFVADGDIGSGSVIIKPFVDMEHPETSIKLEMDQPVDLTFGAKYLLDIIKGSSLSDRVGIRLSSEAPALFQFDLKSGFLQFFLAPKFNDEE
As to the kind of experiment: co-IP; PCNA immunoprecipitated from yeast extract (methods: 2 μg anti-PCNA antibody, overnight at 4 °C, washes with lysis buffer at 220 mM NaCl); level of FLAG-tagged Pol3 or Pol3-01 co-IPed measured (Figure 2C). The following applies: partners not purified.

B1: FLAG-tagged Pol3-01 (Pol3-01-Flag) of the co-IP of Figure 2C (natural protein, S. cerevisiae, UniProt P15436 1-1097, looked up)
chain: MSEKRSLPMVDVKIDDEDTPQLEKKIKRQSIDHGVGSEPVSTIEIIPSDSFRKYNSQGFKAKDTDLMGTQLESTFEQELSQMEHDMADQEEHDLSSFERKKLPTDFDPSLYDISFQQIDAEQSVLNGIKDENTSTVVRFFGVTSEGHSVLCNVTGFKNYLYVPAPNSSDANDQEQINKFVHYLNETFDHAIDSIEVVSKQSIWGYSGDTKLPFWKIYVTYPHMVNKLRTAFERGHLSFNSWFSNGTTTYDNIAYTLRLMVDCGIVGMSWITLPKGKYSMIEPNNRVSSCQLEVSINYRNLIAHPAEGDWSHTAPLRIMSFAIACAGRIGVFPEPEYDPVIQIANVVSIAGAKKPFIRNVFTLNTCSPITGSMIFSHATEEEMLSNWRNFIIKVDPDVIIGYNTTNFDIPYLLNRAKALKVNDFPYFGRLKTVKQEIKESVFSSKAYGTRETKNVNIDGRLQLDLLQFIQREYKLRSYTLNAVSAHFLGEQKEDVHYSIISDLQNGDSETRRRLAVYCLKDAYLPLRLMEKLMALVNYTEMARVTGVPFSYLLARGQQIKVVSQLFRKCLEIDTVIPNMQSQASDDQYEGATVIEPIRGYYDVPIATLDFNSLYPSIMMAHNLCYTTLCNKATVERLNLKIDEDYVITPNGDYFVTTKRRRGILPIILDELISARKRAKKDLRDEKDPFKRDVLNGRQLALKISANSVYGFTGATVGKLPCLAISSSVTAYGRTMILKTKTAVQEKYCIKNGYKHDAVVVYGDTDSVMVKFGTTDLKEAMDLGTEAAKYVSTLFKHPINLEFEKAYFPYLLINKKRYAGLFWTNPDKFDKLDQKGLASVRRDSCSLVSIVMNKVLKKILIERNVDGALAFVRETINDILHNRVDISKLIISKTLAPNYTNPQPHAVLAERMKRREGVGPNVGDRVDYVIIGGNDKLYNRAEDPLFVLENNIQVDSRYYLTNQLQNPIISIVAPIIGDKQANGMFVVKSIKINTGSQKGGLMSFIKKVEACKSCKGPLRKGEGPLCSNCLARSGELYIKALYDVRDLEEKYSRLWTQCQRCAGNLHSEVLCSNKNCDIFYMRVKVKKELQEKVEQLSKW
notes: Pol3, catalytic subunit of DNA polymerase delta, S. cerevisiae, pol3-01 allele (D321A, E323A); the tags may be swapped in the text; source: S. cerevisiae, in lysate
B1: the “fold reduction in co-IP against Pol3” value was 4 fold.
